The values below come from publication PMC11301259, “The crystal structure of methanogen McrD, a methyl‐coenzyme M reductase‐associated protein” (FEBS Open Bio, 2024).

The data set concerns the molecule itself. Description: crystal structure; McrD at 22 mg/mL crystallised at 4 °C in 0.03 M MgCl2, 0.03 M CaCl2, 0.05 M MES, 0.05 M imidazole pH 6.5, 20% glycerol, 10% PEG 4000, 0.02 M carboxylic acids mix; space group C222(1), two molecules in the asymmetric unit; 1.65 Å; oligomerisation analysis with PISA.

B1: Methanomassiliicoccus luminyensis strain B10 McrD (natural protein, UniProt A0AAT8XUI9 1-139, looked up)
chain: MSTDKFEPVPLPEILIFPNRLLSAETTEKLLNRVYDVPHVRQVNISGEGVPAMVGSGPGKGLPVEHEGRKVINVKGREIELQLLVGRVFVEIDDIDVVEKAIEAIDEICQELLPFGYNLEVGRYSKYRPTVTDYKKGKR
notes: McrD of Methanomassiliicoccus luminyensis strain B10, NCBI WP_019176772.1; 139 amino acids; cloned with primers from the start codon to the stop codon; in the crystal residues 1-129/130 are modelled, the C-terminal 10 (monomer A) or 9 (monomer B) residues are disordered; 18 (monomer A) and 9 (monomer B) residues of the plasmid-encoded N-terminal tag are seen in the electron density, so the tag …
Usually stoichiometry N stands for a count of units in the complex or per binding partner. For B1, the “stoichiometry N” value was found to be 2.
